Measurements: the supplement of paper PMC12667976

B1: library; numbered along this chain (parent)
chain: MATDAALRRLLRLHRTEIAVAVDSAFPLLHALADHDVVPEDKFQETLHLKEKEGCPQAFHALLSWLLTQDSTAILDFWRVLFKDYNLERYGRLQPILDSFPKDVDLSQPRKGRKPPAVPKALVPPPRLPTKRKASEEARAAAPAALTPRGTASPGSQLKAKPPKKPESSAEQQRLPLGNGIQTMSASVQRAVAMSSGDVPGARGAVEGILIQQVFESGGSKKCIQVGGEFYTPSKFEDSGSGKNKARSSSGPKPLVRAKGAQGAAPGGGEARLGQQGSVPAPLALPSDPQLHQKNEDECAVCRDGGELICCDGCPRAFHLACLSPPLREIPSGTWRCSSCLQATVQEVQPRAEEPRPQEPPVETPLPPGLRSAGEEVRGPPGEPLAGMDTTLVYKHLPAPPSAAPLPGLDSSALHPLLCVGPEGQQNLAPGARCGVCGDGTDVLRCTHCAAAFHWRCHFPAGTSRPGTGLRCRSCSGDVTPAPVEGVLAPSPARLAPGPAKDDTASHEPALHRDDLESLLSEHTFDGILQWAIQSMARPAAPFPS

Variants of: B1
Assay: AIRE transcriptional activation functional score (insulin promoter-GFP; nonsense median 0, synonymous median 1) (normalised score); higher = higher AIRE activity (more reporter activation)
Details: with insulin promoter-GFP reporter in HEK293
How it was run: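 Codon-optimized AIRE NNN-codon libraries (three regions) were integrated by Bxb1 recombinase into Flp-In T-REx HEK293 landing-pad cells carrying an insulin core promoter-GFP reporter. Integrants (mCherry+, BFP−) sorted at day 7 were expanded 7 days; top 10% GFP and unselected integrant populations were tile-sequenced. Functional score is select versus non-select variant enrichment, wild-type subtracted. Variants needed 10 counts per million in non-select; scores were rescaled to nonsense median 0 and synonymous median 1, then averaged over biological replicates.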

AIRE transcriptional activation functional score: each site, then its substitutions
A461: P 1.19; Q 0.964; S 1.22; E 0.952; C 0.883; L 1.28; D 0.676; Y 1.16; F 1.21; I 0.816; H 1.23; W 1.01; G 1.29; T 0.39; K 1.18; V 1.17; M 1.27; N 1.38; R 0.878
G467: W 1.12; E 1.16; A 0.947; P 1.04; N 0.68; Y 0.488; R 1.01; V 1.06; M 0.866; C 0.822; S 1.06; K 0.889; D 0.675; H 1.42; L 1.46; T 0.0754; F 1.29; I 0.79
T468: W 1.29; E 0.46; S 0.945; G 1.08; A 1.03; D 1.18; P 0.984; M 1.12; K 0.654; N 1.08; C 1.14; V 0.997; H 0.996; L 1.18; Q 1.22; R 0.696; I 1.16; F 1.02; Y 1.25
G462: L 0.83; P 0.607; K -0.837; D 0.731; H 0.925; A 0.924; E 0.465; Q 1.03; T 0.372; N 1.34; V 1.03; Y 1.24; I 0.802; C 0.984; M -0.0181; R 1.01; S 0.982; W 0.899; F 1.26
P460: T 0.871; G 0.909; S 0.714; C -0.358; F 0.995; M 1.17; L 0.827; E 1.16; V 0.608; D 0.0955; N 1.07; H 1.05; I 1.01; Y 0.38; Q 0.787; K 0.952; R 0.824; A 1.14
F453: V 0.154; T 0.101; L 0.17; Y 0.32; H 0.147; G 0.315; Q -0.136; M 0.268; W 1.24; P 0.207; R 0.106; I 0.235; E -0.452; N 0.22; K -0.248; S 0.166
C457: S -0.11; T -0.0599; M -0.234; D 0.0222; F 0.264; H 0.798; Y 0.105; G 0.0376; P 0.211; I -0.23; L -0.0524; A 0.0339; E 0.0401; R -0.0861; Q 0.613; W 0.0502; V 0.0733
G469: V 1.14; L 0.726; T 0.687; I 0.951; R 0.913; Q 0.807; E 0.672; K 0.564; D 0.77; W 1.08; C 1.56; F 1.42; H 1.19; S 1.15; M 1.18; N 1; P 0.911; A 0.409
L470: Q 1.11; H 0.541; E 0.628; G 0.741; V 0.842; D 0.572; W 1.38; I 0.814; R 0.997; K 0.988; A 1.02; S 0.622; Y 0.549; C 0.85; M 0.671; P 0.863; T 0.558; F 0.971; N 1.06
H458: Y 0.864; N 0.71; G 0.842; E 0.661; S 0.164; C 1.02; L 0.474; K 0.374; D 1.4; A 0.981; F 0.227; V 0.655; I -0.227; Q 0.165; R 0.586; M 0.387; P 0.0561; T 1.16
R456: Q 1.13; I 1.1; D 0.851; T 1.32; N 0.016; S 0.726; G 1.27; E 1.24; Y 1.51; P 1.1; K 0.0856; C 1.3; A 1.16; H 1.2; F -0.0642; W -0.304; V -0.245; L 1.04
R465: H 0.546; T -0.654; Q 0.443; L 1.01; G 0.791; A 0.476; V 0.453; C 0.66; S 1.04; I 0.773; P 0.829; F 1.15; W 1.18; M 0.403; D 0.53; N -1.1; Y 1.39
F459: D 0.929; T 0.589; C 0.343; E 0.803; Y 1.3; R 0.444; W 0.395; A 0.0803; L 0.464; I 0.371; H 1; V 0.585; Q 1.14; S 0.591; N 1.27; P 0.572; G 0.834; K 0.78
T463: V 1.49; F 0.0316; Q 0.155; M 1.51; P 1.14; L 1.06; N 0.736; C 1.42; Y 0.384; A 0.614; G 1.01; S 1.01; R 0.998; W 1.05; D 1.54; K 0.983; I 0.876; H 0.813
S464: K 1.18; Y 1.23; I 1.17; L 1.06; G 1.27; C 1.18; A 0.955; R 0.955; N 0.563; D 0.7; V 0.722; P 1.21; F 0.807; H 1.17; E 1.32; T 0.783; W -0.451; M -0.078
W455: H 0.823; Y 0.988; T 0.727; D 0.9; C 1.09; I 0.29; P 1.3; M 0.774; F 1.3; Q 1.09; L 1.03; S 0.675; A 1.1; G 0.965; K 0.572; R 0.879; N 1.34; E 1.17; V 1.17
P466: A 0.83; Y 1.21; Q 1.02; K 0.864; W 1.42; S 1.08; T 1.12; N 0.444; D 0.553; L 1.1; V 1.06; I 1.21; G 1.23; M 0.678; R 0.843; C 1.89; E 0.232; H 1.46; F 0.774
H454: S -0.00319; G 0.0883; K 0.0788; Y 0.205; T 0.0122; I -0.0282; E 0.0475; Q 0.0498; M -0.148; C 0.499; W 0.31; V 0.0829; N -0.0603; R -0.0692; A -0.16; L -0.161; P 0.129; F 0.117; D 0.289
R471: G 0.676; H 1.03; D 0.476; A 0.351; C 0.215; F 1.09; E 0.786
